Assay results taken from the NTF2 design screens of Basanta et al. (2020).

assay: protease stability score; higher = more stable; yeast display proteolysis, trypsin and chymotrypsin;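 also: log10 excess protease needed over predicted unfolded state with 0 meaning unfolded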

Sequence | protease stability score
DEEDESRHAEIAIRALAQGDEEELRRQVDPNARVRIGEFNVHGREAAHKAVKTLQEEFDHVDLTHVTTRGEKARVDVKYKKNGKEVTFQLEAKVHDGKVKELQMEKG | -0.241
DDESRVRKMLEDMREQLQTGNPERVADMADPNVEVTVGDKTLRGREDLVKYWRSIAENVDRVDLKLRSLNISGDQISVDFVERNNDNGQTRKHDASARFQKDNGRILATHIHVQ | 0.119
DEEQMDRFKDLKHALDEGDEDRLKNLVDPNARMRYGDKEVTGMEDIARQQVQRVNEINVEVDRMHVQVHNGTLEIHATVTENHNGKPKKYTFRATARAENGRFVHRVQETRG | -0.101
DEKRARKLLEKAFELVQKGNKDTMRKIGKPNVKYKYVDQEYEGPEAMKFVIDVVKKIGAEVKKQEVEVKGDTAKATFQYRQGDKTVETRVEVKYEGDKLKEVRVEATDEVKKLVHQG | 0.009
DEKKVQEVAKDALKVDLQGDVEKMKKLGKPDVTFQLGDQEVHGPDDLKKYYDKVKRLGEEIHVKKVKVEGDKMQAHYELRVAGKQATVTVEVTVKDEKVEEARAEMTEKYKKALEEG | -0.154
DEEEKKKKAEHAAKAFVTGDEERMNQLASPDVTATVGDQRVHGRDDMNKLLQEFKRQADHVELKSFRNDENHVTIHVRVNHNGKMDKFVVNIRMHNGQVKIIHQTSS | -0.289
DEEQKKHVKEMIEAERTGNEEQARKLVDEDVRANYGDHEVHGRETLRKHVRDVKREWSVQIDDVKLRVHNGRVQMHFDFVRDENGRPEKMTATATAEAHNGKIKEINRQDHK | -0.204
DKEEFEKTAKTFMKVWTNGDPDQWKELMDPNARLQIGDKEWHGREEVREAITQFHDRVDHIEVKDLKVTEDHVRLIAVVRFNGREVKVTVNIHFENGRATHVENHFTDDDQLKRNLS | -0.084
DESITEFASHWKEVLEHGDFRRMADNVDEDVKVRIGDKEIHGRTRYRRRAKKQEDEISFRLQDLHVEVQGDHIVAKFQATVKINGQPNTFTVNVVMRVHNGRIKYMEQQFSEEDEDKLTQ | 0.534
DEDEKVRQLVRDLIEALRTNDQKRWVELADKDARLKVGDKSYHGREELAKQMKKLREHVDHVTMRVKRVEVHNGRISVDATLTYDINGKKNHQTVKMQFRRHNGQIRLVQIEME | 0.174
DDREMKKFAEQYARNLTRNDEDSLKDLFDENAEVTIGDKQVRGQEKIKSLLHQLHQQVDHFDLRRVDAQGDDIKIVVLWNHNGKHLNVTISMRVHNGRIKSATDHVRSEDDERKFKR | 0.569
DEKKAEEMLRRVVKLFRNGDVETVRKMGKDDVEVKYLDETRHGPDAMKKMLEKMKKLGAEVEYKEVHVEGDKATVKVEANIDGTTVRFHVTYQVKDHRVENVKVEYSEKAKKAIKHG | 0.754
DEHHTQEARKFLENQQTGNETELQKYADPNASAQIGDKRVHGMEKFAHTIRKEVDELRMTIHDVRFDANGEKVIVHVDVQYDHNGRPERATMVVLFKHNNGKATEITARYDK | 0.411
DEEDYKSIATEFVQALREGDEQHFRRLLDEEVNNDVGDKRIRGREKVETELRKILHKVDHVDVKDYKVHNGHVTVDMRFDDNGKEERWTMQAQFHNGRLKSIWMRTR | 1.08
DEEAVRHYHEMVREEETGNEDEAMKYFDPNATVRIGDKTVKGKDSIRKWVRDRRDEMRVEIHQLNVHVSNGQIDVSVDFTKEHNGRPQTMQQKVRVTATNGKIKKVNNHDDG | -0.261
DEKANTQAKRLLDVMNSGDEEKILRQMDEDVEVVIGDTKVKGREDIRRWMQKVLKELRVVYDLKHLRAHNGKIDIKAKMHNNHNGQPNSNDVIIIAKIHNGRFKHFEVHTQS | 0.804
DDEKQVREVVTDFIQALEEGDEKRVRQLIDPNASADVGDRKYHGREQVAEMVREQMDQVDHIEFTLRKVEIQGEEVVVRVEVVLNHNGQEKQIHMTLIFVVKNGHLQLKEIHQD | 1.37
DTDAVRRALKFIDAMQDGDPDKARELMDPNARVNIGDKEYHGMTSFVKDLKRLRDEIRVQYNIRDYNAQGEKIHVTVDVVFEHNGRPVDERFNVTIDIQGDKIKQVTAHRTK | 1.61
DNKERAEDWFRHMTEIWKQNDPDELQNNADPNVRVDVGDKQVQGRDKYKTQMETFKNRADHISIELKNIDVQGERIVVNFEATYDVNGRKEDKTAHILARVHNGHIVIKEVKNG | -0.073
DEDEYAHQVAQELRKAMETGDSDRIARLFDENAELRVGDKVWHGRDQIRKYWHEWLRRADTVDVKIDEVDVEGDKARAHIRVRAEDNGRHQEFTVKMTLKNKNGRAKITSMHVS | 1.57
DEKKATKVAKQIQDMMVKGDSDKVEKVGKPNVEFQVGDVKMKGPDELKKYYKKVKDVGNELHVKEAKVEGDTVEVHYDLRHGGTQATVTVRIELKDDKVDRAKVDVDEHYKKIVKKG | -0.068
DREEQKKVAKHMDDLVRTGDPREATDLIDPNAKADVGDKQYHGREQLHKLFKEQHERADHADLKSFDAHNGKVEVNVIIQVNGRRHRVIYHADADNGRVKFVSVRSS | -0.164
DEDDANQVERDLRENDWDQLVRNFDEDARIQIGDYTIHGREDYKRWLEEVEKQVDKVEIKQVDIHGNNIVVDYRQQVNGQHVRAIMVITMDNGKIKEMHVDVRSEDAKRAYERIFR | 0.525
DSKVRRVAERFMHAIQEGNEDDVRKLADKNVQIHVGEKELRGRDQLAKDVSDRTRQIRLHIKHLSIHVQGDKVIVRFDVVETHNGKPHRYRAKAEMRVRNGRVTRYTVKHDG | 0.633
DSREAKRAETFFRLVQRGDSRKLQEYMDPNARINIGEKRIHGRENYAKEVKDRREHIRVDIKSLEASDTNGRIHVEVHFEHSHNGRPDQQTMELRITMHNGRAQEITQHETK | -0.223

Sequence | protease stability score
DDENVKKFAKELLHVIKDNDEDRFRKLAPPNVEAQYGDKTIRGRESAATQFSRVATRIDHVRLEHMTVQGEHVVMKMEVDVNGRNKQLRIVFHVRNGKITSFSMDPEAQRVNSQ | 0.594
DEETAQKIVEKLATGDEEQKREQMDKDVTVVIGDKELRGRETIVNQLRKIRKQVDHLEVKTYSAHNGRAEIVMRMQVNGRTMEYSIRVQVHNGRIQHIKFRVRNHEVQELLDRLLS | 0.464
DEEELKDWLRNAREIWETGNPDQMEELADPDASIQVGDRTYHGSDEYKKWVEDMHRHADHIEVKEVSIRGDKVHIQVVINVNGRNFTFEFELRVRNGRVKQFNFDPDRMEEIKK | 0.574
DEEVAQDVRRNVERGDWKRWAELADENARVSVGDNTYEGRNDWHKYVKDLEHQVDHFEVKHITIENGKIKVDFVLTVNGHEVRMKQVIVVTNGRISRLRIQATDTDVQRQLNEAMR | -0.066
DKDDFKEAEHILRTGDPDEWSKMVDPNARAEVGDEEIHGKEEFDRWMQKKKKRVDHEQVKSVDFHGDKWRVVLVFNVNGRQADVVMVMQVHNGRLVYQVVRFRDHQVKDVVRKRLS | 0.336
DDTAMRVYQEIVKALQTGDPDKVRNNFDENVEYHVGDTKVHGRDEALERIKKRMDEIRVEIQLQKVETQGDKVIVRARYVNETNGKPKQSNNNIIFKVKNGKMTHMQEREDS | -0.045
DEELKKQMDEALKARQNNDEQRLRDLFDPNVHIQVGDKVITGREEYAKRVVTTLRQLRFKYTVKSVKTKPNHIEIDVEVHNNRNGNPSNRKIVINMEADNGKISHLSVEHDG | 0.585
DDETLNELVETLMKAWNQGNPDDLNKLIDKDAKIIIGETHIHGRDEFRKWADTLHRQVDHYQFDSVTAHNGRVRMHMKLRVNGVNVVVHVKVQAHNGRIKRMRMRWRNEEDKKKVEQ | 1.39
DHEAQENAKHFIDALHTNDPRQVVEMIDPNARVNVGDKQLRGDSQVRKWWRRQNEEIRMHVKVDDIKVKGNNAVAKFKMEITHDGTPNDNHAEMTVTFHNGRATDLKVDEDK | 0.017
DEEANKIAKKFQEALRKGDENRLKELVDPNVRMEYGDHSIHGREELEKDVRKKKRDMRVKITLDHMEDNGSEVTAKVRWTQEHNGTPDSTHFSARFDFTDGRLKHYDQNDSG | -0.009
DKDTEQHFADSMNQIIEQGNPKKAMKLADKDVQMQIGDKTYKGREEMMKQIKRFWKHVDEIRVKDVKVNDGQININVILDFNGKKVEVRIVIHVHNGKIHELRVDPKDKEQFEK | 1.09
DEEDDKRIAEDVVRQLQTGNPDQARDQADPNAEFRVGDRTIHGRDSFRRLMKETRDEVDKVQVQDFEMHNGHFSVNLVFNINGKEKLVHMSAQFKNGTIKHLSVQDQ | -0.36
DEEAAKKVKTLVEHGDFQQMARNFDEDARVVIGDRVVHGREQAIEAMRRFDEAVDHQEVKSVTSSGNKVKFNIQAHVDGKTVRMIVVIEMHNGKLKMVRFDATSEDLRRILKRSLG | 1.27
DEEDEERFEELLKAEEDGDEDRMNELVDENAEFHYGDTVIDGMTDYAREVVHRLNELRWHIDWDDMKQSNGRIQVRAKLVVKVNGTPNNDDVERQVQWDNGRVHQMNERFDSKKHKEMDK | -0.158
DERQENNARKFFTAYLKGDEHKLTELMRDDVRLKIGDKEIHGRETALKTIHTLRRRQRIHIQVDNIEVDENHVEVHAKIEWEHNGQPDSQKVRIDIKFHNGRINYLQMDLRG | 1.59
DTHDVKRILDELKTNDEDMNRHLVDPNAKLRIGDKEIHGREELTEFYHRFHKQVDSQRIKDVRVHGNRFRVEFEAVFNGQTVEASYEATFHNGKATSLRYTATSNEELKNLQKVMD | 0.147
DRTKTAKKVWDDFRSIMENNDPKEAEKLFDENAKADLGSKQVHGREQMVEMLRELAERVDHVEIRMKTVTDDNGQLNIEAEVRAEINGKQHTWRNQLNVVQQGDKRRIVSAKYG | -0.42
DREERARQLLRELLKALETGDEDTAANQADPNVRVSVGDRTYHGREQYRTFLRKVAERVDHLEVRVDRVTQDNGQIHMDMTVRHEKNGRTHRKEFVIQIDVQGDKNRFVQMRHK | -0.163
DDDKQRKVEQVNRAWNEGDEETWKNNFDPNARVNVGEFNYEGMEEISKNIRDQKEQWRIEFKRMDLNMHGNKATAHFEATTNHNGNPDEFRKRLEAEFQGDRLKHMRVTEDR | -0.235
DEEDLKTMFDVMETGDPNQIADQFDKDARVVVGNRRVRGKEHIHTWAHEWRKNVDHQQVDSYEIKGDNARVDMQATINGTRFVFEIIIQVHNGKAKEMELRVRDEEEKKELDEVLE | -0.026
DHKLHHQLHRLIKALQTGDPDKIRELVDPNVEFVVGEKRYKGREDYVTDFKERLDHIRLDNDVRDVEVHGNKMRANIQTEVQDDGQPRTYQVRLDASAHNGKVKSLKVDKKP | -0.059
DEHKLQQVFEKFLKAFNTGDRDLARKLMDPNVKLDVGDKTYHGREQAMRWMHQVRQKADHIQVQSMESSGNKATVDIVIEHNGKSTSEVIRLEVENGHFRHVRKDSP | 0.091
DEEVAKKMMETWQKVVQKGNDKDARELYKPNGEWVDGDEKHQGVDYVVKALQRVKKYGAEFQVRKAKVEGDTATMVYDLRIGDKTVTFVVQMQADGGRVERVQVKMNEEAKKAVTHG | 0.786
DTRARDIARRFWEAIRKNDPDKIKNQADENADFKVGDKTIHGMDHIIHHWEKVNKHARFQWERMEIKDSPNHVDVKYQFIVDVDGEPKTINATAQFQFHNGRIKNYEIQVDPEQFKEITK | 0.523
DEEAQKAAERVWKAIERGNEEELHRLIDPDVRIKVGDKDYHGREHYVESVVEIMTTIRFTIHRMEIKVSGERVIIEYHYEFSVNGQPDTMRVIVYMVAHNGKVKNIHVKMSPEKRDRFRE | 1.05
